Laboratory results from article PMC4081071.

T1: GLD-1 KH-QUA2 (Caenorhabditis elegans, UniProt Q17339 195-336)
T1 sequence: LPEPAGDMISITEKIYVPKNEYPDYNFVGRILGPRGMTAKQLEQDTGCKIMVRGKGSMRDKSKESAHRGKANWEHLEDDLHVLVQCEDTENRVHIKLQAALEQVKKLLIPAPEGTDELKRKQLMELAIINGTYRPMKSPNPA

T2: GLD-1 KH-QUA2 P228A (Caenorhabditis elegans, UniProt Q17339 195-336, P228A)
T2 sequence: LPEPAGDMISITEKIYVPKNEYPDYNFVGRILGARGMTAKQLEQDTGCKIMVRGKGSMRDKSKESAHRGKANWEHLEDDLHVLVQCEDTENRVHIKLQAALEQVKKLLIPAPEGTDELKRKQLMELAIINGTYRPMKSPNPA

T3: GLD-1 KH-QUA2 P228S (Caenorhabditis elegans, UniProt Q17339 195-336, P228S)
T3 sequence: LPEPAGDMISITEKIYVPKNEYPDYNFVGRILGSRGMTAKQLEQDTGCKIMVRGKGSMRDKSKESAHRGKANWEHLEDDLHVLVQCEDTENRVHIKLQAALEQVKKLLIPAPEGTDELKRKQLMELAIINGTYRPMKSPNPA

B1: tra-2 TGE strong site (ssRNA)
RNA: CUACUCAUAU
B2: tra-2 TGE weak site (ssRNA)
RNA: AUUUAAUUU

Key:
GLD-1 KH-QUA2 [1] = biological target: T1, GLD-1 KH-QUA2; test: ITC
GLD-1 KH-QUA2 P228A = biological target: T2, GLD-1 KH-QUA2 P228A; test: ITC
GLD-1 KH-QUA2 P228S = biological target: T3, GLD-1 KH-QUA2 P228S; test: NMR HSQC titration
GLD-1 KH-QUA2 [2] = biological target: T1, GLD-1 KH-QUA2; test: NMR HSQC titration

| Binder | Kd (GLD-1 KH-QUA2 [1]) [nM] | binding signal (GLD-1 KH-QUA2 P228A) | binding result (GLD-1 KH-QUA2 P228S) | binding result (GLD-1 KH-QUA2 [2]) |
| --- | --- | --- | --- | --- |
| B1 | 61 ± 3 | 19 fold decrease in affinity vs wild type | binds |  |
| B2 |  |  |  | binds |
